For series [1], the system named is Jurkat cells. In words: Tacrolimus serum experiments: dose response of FKBP13 constructs under different serum concentrations, GFP MFI. In kind it is cell-based. The note with it: increasing FBS, FIGS. 51-54. Here is the method:
Incubation with increasing FBS results in 2 fold increase in Ec50 with 80% FBS.

Another series concerns the target T1, FKBP13 (Homo sapiens, UniProt P26885).
T1 sequence (P26885 22-142): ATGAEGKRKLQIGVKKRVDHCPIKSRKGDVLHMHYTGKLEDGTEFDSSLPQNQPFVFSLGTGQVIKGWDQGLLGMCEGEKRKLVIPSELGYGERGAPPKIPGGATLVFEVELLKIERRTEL
The note with it: read-out: binding affinity for FKBP13; cited from earlier work.

For series [2] the following is noted: clinically approved dosages 0.1-0.3 mg/kg of body weight, tissue/organ transplants; cited from earlier work.
In the next series the test system is HEK293 cells. The experiment in a line: Tacrolimus dose response of FKBP13 constructs transiently transfected into HEK293 cells, Celigo Image Cytometer. The class given is cell-based. The note with it: for performance / drug responsiveness in tacrolimus dose response: FIGS. 5, 6, 8. From the text: In another experiment, several FKBP13 DRD constructs were transiently transfected into HEK293 cells, as described above, and analyzed using a Celigo Image Cytometer (Nexcelom, Lawrence, MA).
To test the effects of other substitutions instead of methionine at residue number 54 and leucine at position 93 FKBP13 DRD constructs were generated and were transiently transfected into HEK293 cells, as described above, and analyzed using a Celigo Image Cytometer (Nexcelom, Lawrence, MA).
In another experiment, to explore the possibility of further truncating FKBP13, constructs (FKBP-044, FKBP-083, FKBP-084, FKBP-085, and FKBP-086) were transiently transfected into HEK293 cells, as described above, and analyzed using a Celigo Image Cytometer (Nexcelom, Lawrence, MA). A combination of DRD-genic M54A with truncation of the N-terminal histidine lowers basal (FKBP-083).
In another experiment, several constructs (FKBP-044, FKBP-092, FKBP-093, FKBP-094, FKBP-095, FKBP-096 and FKBP-097) designed to explore additional DRD-genic mutations were transiently transfected into HEK293 cells, as described above, and analyzed using a Celigo Image Cytometer (Nexcelom, Lawrence, MA).
Other constructs (FKBP-091, FKBP-098, FKBP-099, FKBP-100, and FKBP-101) were transiently transfected into HEK293 cells, as described above, and analyzed using a Celigo Image Cytometer (Nexcelom, Lawrence, MA).
In another experiment, several constructs (FKBP-091, FKBP-102, FKBP-103, FKBP-104, FKBP-105 and FKBP-106), designed to combine the binding site mutation identified in FKBP-091 with novel DRD-genic mutations, were transiently transfected into HEK293 cells, as described above, and analyzed using a Celigo Image Cytometer (Nexcelom, Lawrence, MA). […]
In another experiment, several other constructs (FKBP-091, FKBP-107, FKBP-108, FKBP-109, FKBP-110, and FKBP-111), designed to combine the binding site mutation identified in FKBP-091 with novel DRD-genic mutations, were transiently transfected into HEK293 cells, as described above, and analyzed using a Celigo Image Cytometer (Nexcelom, Lawrence, MA). […]

Series [3] has as its system Jurkat cells. In words: Tacrolimus dose response of FKBP13-AcGFP-mCherry constructs stably transduced into Jurkat cells, GFP MFI by flow cytometry. In kind it is cell-based. Summed up:
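Jurkat E6-1 cells lentivirally transduced with FKBP13-AcGFP-mCherry constructs to 10-25% mCherry+ (day 5) were dosed with tacrolimus. GFP geometric MFI in mCherry+ cells was measured by flow cytometry and fitted to dose-response curves.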
(In flow cytometry, cells or beads pass a laser one at a time.)

In another series the test system is HEK-293T cells. The experiment in a line: Tacrolimus (FK506) response of FKBP13-AcGFP-mCherry constructs transiently transfected into HEK-293T cells, flow cytometry. In kind it is cell-based. The settings on record: for Fold Change: tacrolimus response of FKBP13 DRD-AcGFP construct, Table 3. The text has this:
The DRD in FKBP13-039 was a wildtype (WT) FKBP13 (i.e., a 98 amino acid fragment of SEQ ID NO: 1). […] The FKBP13-043, FKBP13-044, and FKBP13-045 constructs included DRD-genic mutations D90G, M54A and M96V, respectively, and three binding site mutations (Q72R, Q84E, and A117H).

The test system of series [4] is Jurkat cells. In words: Sirolimus (rapamycin) dose response of FKBP13 constructs stably transduced into Jurkat cells, flow cytometry. In kind it is cell-based. The note with it: rapamycin, Table 14. Here is the method: Normalized EC50 values were calculated from the mCherry normalized GFP MFI values, which accounted for any differences in mCherry intensity between samples.

Setting [5] is: tacrolimus dose response, Jurkat cells stably transduced (FIG. 10), Table 5.

Residue numbers refer to the chain shown, from its start. Names and notes keep the numbering of the source.

`C=CC[C@@H]1/C=C(\C)C[C@H](C)C[C@H](OC)[C@H]2O[C@@](O)(C(=O)C(=O)N3CCCC[C@H]3C(=O)O[C@H](/C(C)=C/[C@@H]3CC[C@@H](O)[C@H](OC)C3)[C@H](C)[C@@H](O)CC1=O)[C@H](C)C[C@@H]2OC` [Tacrolimus, tacrolimus]: in the series with Jurkat cells [1], the “increase in Ec50 with 80% FBS” value is reported as 2 fold. Moreover, on FKBP13, the Kd is 166 nM. Moreover, in series [2], the Cmax – broadly, the highest concentration seen after dosing – is 20 to 68 ng/mL.

B1: FKBP-083: FKBP13 trunc1 DRD Q72R, Q84E, A117H, M54A; SEQ ID NO: 33 (protein)
chain: CPIKSRKGDVLHAHYTGKLEDGTEFDSSLPRNQPFVFSLGTGEVIKGWDQGLLGMCEGEKRKLVIPSELGYGERGHPPKIPGGATLVFEVELLKIER
modifications: truncated (trunc1); Description of sequence: FKBP13-AcGFP-mCherry Fusion; Construct Name: FKBP-083; FKBP13 DRD in Construct : FKBP13 trunc1 (mutated to match FKBP12 active site - Q72R Q84E A117H) (DRD - M54A)
In the case of B1, the Basal entry with HEK293 cells (FIG. 7) was “lowers basal”.

B2: FKBP-044: FKBP13 DRD Q72R, Q84E, A117H, M54A; SEQ ID NO: 7 (protein)
chain: HCPIKSRKGDVLHAHYTGKLEDGTEFDSSLPRNQPFVFSLGTGEVIKGWDQGLLGMCEGEKRKLVIPSELGYGERGHPPKIPGGATLVFEVELLKIER
modifications: Description of sequence: FKBP13-AcGFP-mCherry Fusion; Construct Name: FKBP-044; FKBP13 DRD in Construct : FKBP13 (mutated to match FKBP12 active site - Q72R Q84E A117H) (DRD - M54A)
For the molecule B2, the Fold Change stood at 12.6 in the series on Jurkat cells [3] (tacrolimus dose response, Jurkat cells stably transduced (FIG. 4), Table 4); 11.805 in the series with Jurkat cells [3] (setting [5]); 9.4 in the series on HEK-293T cells. Also, in the series on Jurkat cells [3] (tacrolimus top concentration 10 μM, 24 hr, FIG. 2), the “EC50 and fold-change characteristics” value was “best EC50 and fold-change characteristics”. For the same molecule, the “AcGFP stabilization / fluorescence signal in response to FK506” value with HEK-293T cells (0, 1 or 10 μM FK506, 24 hours, FIG. 1B) is “increased more effectively”.

B3: FKBP-091: FKBP13 DRD Q72R, Q84E, A117W, M54A; SEQ ID NO: 41 (protein)
chain: B2 chain with H77W
modifications: Description of sequence: FKBP13-AcGFP-mCherry Fusion; Construct Name: FKBP-091; FKBP13 DRD in Construct : FKBP13 (mutated to match FKBP12 active site Q72R Q84E A117W) (DRD - M54A)
Take B3: the EC90 (usually the point of the concentration-response curve where the effect stands at 90%) with Jurkat cells [3] (read-out: Tacrolimus EC90 (Norm), tacrolimus, normalized, Table 14) is 117 nM; with Jurkat cells [3] (read-out: Tacrolimus EC90, tacrolimus, Table 14) it was 111 nM; in the series on Jurkat cells [4] (read-out: Rapamycin EC90), 398 nM; in the series with Jurkat cells [4] (normalized, read-out: Rapamycin EC90 (Norm)), 414 nM. The “Fold Change” value in the series with Jurkat cells [3] (setting [5]) was 12.36; with Jurkat cells [3] (tacrolimus, Jurkat cells stably transduced, Table 6), 11.29. Moreover, the “Tacrolimus FC” value in the series on Jurkat cells [3] (tacrolimus, fold change, Table 14) stood at 12.4. Further, the “Rapamycin FC” value in the series with Jurkat cells [4] (fold change) came out at 3.2. In the series with HEK293 cells, the “performance / drug responsiveness in tacrolimus dose response” value is “superior drug responsiveness”.

B4: FKBP-068: FKBP13 DRD Q72R, Q84E, A117H, M54S; SEQ ID NO: 24 (protein)
chain: B2 chain with A14S
modifications: Description of sequence: FKBP13-AcGFP-mCherry Fusion; Construct Name: FKBP-068; FKBP13 DRD in Construct : FKBP13 (mutated to match FKBP12 active site - Q72R Q84E A117H) (DRD - M54S)
On to B4, for which, in the series with Jurkat cells [3] (setting [5]), the “Fold Change” value is listed as 43.62. Also, the “performance / drug responsiveness in tacrolimus dose response” value in the series with HEK293 cells was “closest in performance to the original M54A substitution”.

B5: FKBP-041: FKBP13 DRD M54A; SEQ ID NO: 4 (protein)
chain: B2 chain with R32Q, E44Q, H77A
modifications: Description of sequence: FKBP13-AcGFP-mCherry Fusion; Construct Name: FKBP-041; FKBP13 DRD in Construct : FKBP13 (DRD - M54A)
B5 had a Fold Change with HEK-293T cells of 7.8.

B6: FKBP-042: FKBP13 DRD M96V; SEQ ID NO: 5 (protein)
chain: B2 chain with A14M, R32Q, E44Q, M56V, H77A
modifications: Description of sequence: FKBP13-AcGFP-mCherry Fusion; Construct Name: FKBP-042; FKBP13 DRD in Construct : FKBP13 (DRD - M96V)
Consider B6, for which the Fold Change with HEK-293T cells is recorded as 1.3.

(Values after patent US20250186614A1, “COMPACT DRUG RESPONSIVE DOMAINS FOR REGULATION OF FUNCTION/ABUNDANCE AND DELIVERY OF POLYPEPTIDE PAYLOADS” (OBSIDIAN THERAPEUTICS, INC., priority 2022, published 2025).)
